Test results: US20210139548A1 (published 2021)
Each block holds one binder with its values, some of them ahead of it. *1 amine or outer side, *2 acyl side, *3 side chain or, on linkers, in order; H or OH if unused. Side-chain parts run from the residue outwards. The star is where a group is joined. C18 diacid = O=C(O)CCCCCCCCCCCCCCCCC(=O)*; γGlu = O=C(O)[C@H](CCC(=O)[*:2])N[*:1]; Isovaleryl = CC(C)CC(=O)*; AEEA = NCCOCCOCC(=O)O

Target: T1, human neuropeptide Y2 receptor (human, UniProt P49146 1-381)
T1 construct: whole, on cells; also called hNPY2 receptor; hNPY2-R
T1 sequence (looked up): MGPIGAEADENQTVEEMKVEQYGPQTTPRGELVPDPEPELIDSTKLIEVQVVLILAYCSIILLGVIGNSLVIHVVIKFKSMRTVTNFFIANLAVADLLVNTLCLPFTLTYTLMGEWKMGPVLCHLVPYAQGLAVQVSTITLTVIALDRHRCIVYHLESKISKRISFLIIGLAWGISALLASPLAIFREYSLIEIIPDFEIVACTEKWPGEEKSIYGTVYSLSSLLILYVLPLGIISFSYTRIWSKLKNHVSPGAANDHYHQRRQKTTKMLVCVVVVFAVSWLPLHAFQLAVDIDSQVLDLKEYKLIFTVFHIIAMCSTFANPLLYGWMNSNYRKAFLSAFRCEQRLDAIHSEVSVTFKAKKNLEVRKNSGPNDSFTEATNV
Assay: radioligand competition (125I-PYY(1-36)), hNPY2R membranes
Summary of the method: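 Commercial human Y2 receptor membranes (0.5 μg protein/well) were incubated with peptide for 2 h at room temperature in 50 mM HEPES, 5 mM MgCl₂, 1 mM CaCl₂, pH 7.4, with 0.2% ovalbumin. Bound radioligand was separated on PEI-soaked GF/C filters and counted by scintillation, and IC₅₀ came from nonlinear sigmoidal regression.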

Ki: 4.43 nM
B1: Compound 158 (peptide)
peptide: Isovaleryl-APEK([AEEA-AEEA-γGlu-C18 diacid])PEEDASPEELQRYYVSLRHYWNYLTRQRY-NH2
SMILES: CC(C)CC(=O)N[C@@H](C)C(=O)N1CCC[C@H]1C(=O)N[C@@H](CCC(=O)O)C(=O)N[C@@H](CCCCNC(=O)COCCOCCNC(=O)COCCOCCNC(=O)CC[C@H](NC(=O)CCCCCCCCCCCCCCCCC(=O)O)C(=O)O)C(=O)N1CCC[C@H]1C(=O)N[C@@H](CCC(=O)O)C(=O)N[C@@H](CCC(=O)O)C(=O)N[C@@H](CC(=O)O)C(=O)N[C@@H](C)C(=O)N[C@@H](CO)C(=O)N1CCC[C@H]1C(=O)N[C@@H](CCC(=O)O)C(=O)N[C@@H](CCC(=O)O)C(=O)N[C@@H](CC(C)C)C(=O)N[C@@H](CCC(N)=O)C(=O)N[C@@H](CCCNC(=N)N)C(=O)N[C@@H](Cc1ccc(O)cc1)C(=O)N[C@@H](Cc1ccc(O)cc1)C(=O)N[C@H](C(=O)N[C@@H](CO)C(=O)N[C@@H](CC(C)C)C(=O)N[C@@H](CCCNC(=N)N)C(=O)N[C@@H](Cc1c[nH]cn1)C(=O)N[C@@H](Cc1ccc(O)cc1)C(=O)N[C@@H](Cc1c[nH]c2ccccc12)C(=O)N[C@@H](CC(N)=O)C(=O)N[C@@H](Cc1ccc(O)cc1)C(=O)N[C@@H](CC(C)C)C(=O)N[C@H](C(=O)N[C@@H](CCCNC(=N)N)C(=O)N[C@@H](CCC(N)=O)C(=O)N[C@@H](CCCNC(=N)N)C(=O)N[C@@H](Cc1ccc(O)cc1)C(N)=O)[C@@H](C)O)C(C)C

Ki: 2 nM
B2: Compound 160 (peptide)
peptide: Isovaleryl-APEK([AEEA-AEEA-γGlu-C18 diacid])PEADAEPEELQRYYTSLRHYYNWLTRQRY-NH2
SMILES: CC(C)CC(=O)N[C@@H](C)C(=O)N1CCC[C@H]1C(=O)N[C@@H](CCC(=O)O)C(=O)N[C@@H](CCCCNC(=O)COCCOCCNC(=O)COCCOCCNC(=O)CC[C@H](NC(=O)CCCCCCCCCCCCCCCCC(=O)O)C(=O)O)C(=O)N1CCC[C@H]1C(=O)N[C@@H](CCC(=O)O)C(=O)N[C@@H](C)C(=O)N[C@@H](CC(=O)O)C(=O)N[C@@H](C)C(=O)N[C@@H](CCC(=O)O)C(=O)N1CCC[C@H]1C(=O)N[C@@H](CCC(=O)O)C(=O)N[C@@H](CCC(=O)O)C(=O)N[C@@H](CC(C)C)C(=O)N[C@@H](CCC(N)=O)C(=O)N[C@@H](CCCNC(=N)N)C(=O)N[C@@H](Cc1ccc(O)cc1)C(=O)N[C@@H](Cc1ccc(O)cc1)C(=O)N[C@H](C(=O)N[C@@H](CO)C(=O)N[C@@H](CC(C)C)C(=O)N[C@@H](CCCNC(=N)N)C(=O)N[C@@H](Cc1c[nH]cn1)C(=O)N[C@@H](Cc1ccc(O)cc1)C(=O)N[C@@H](Cc1ccc(O)cc1)C(=O)N[C@@H](CC(N)=O)C(=O)N[C@@H](Cc1c[nH]c2ccccc12)C(=O)N[C@@H](CC(C)C)C(=O)N[C@H](C(=O)N[C@@H](CCCNC(=N)N)C(=O)N[C@@H](CCC(N)=O)C(=O)N[C@@H](CCCNC(=N)N)C(=O)N[C@@H](Cc1ccc(O)cc1)C(N)=O)[C@@H](C)O)[C@@H](C)O

Ki: 2.34 nM
B3: Compound 169 (peptide)
peptide: Isovaleryl-APEK([AEEA-AEEA-γGlu-C18 diacid])PEEEASPEELQRYYVALRHYYNWLTRQRY-NH2
SMILES: CC(C)CC(=O)N[C@@H](C)C(=O)N1CCC[C@H]1C(=O)N[C@@H](CCC(=O)O)C(=O)N[C@@H](CCCCNC(=O)COCCOCCNC(=O)COCCOCCNC(=O)CC[C@H](NC(=O)CCCCCCCCCCCCCCCCC(=O)O)C(=O)O)C(=O)N1CCC[C@H]1C(=O)N[C@@H](CCC(=O)O)C(=O)N[C@@H](CCC(=O)O)C(=O)N[C@@H](CCC(=O)O)C(=O)N[C@@H](C)C(=O)N[C@@H](CO)C(=O)N1CCC[C@H]1C(=O)N[C@@H](CCC(=O)O)C(=O)N[C@@H](CCC(=O)O)C(=O)N[C@@H](CC(C)C)C(=O)N[C@@H](CCC(N)=O)C(=O)N[C@@H](CCCNC(=N)N)C(=O)N[C@@H](Cc1ccc(O)cc1)C(=O)N[C@@H](Cc1ccc(O)cc1)C(=O)N[C@H](C(=O)N[C@@H](C)C(=O)N[C@@H](CC(C)C)C(=O)N[C@@H](CCCNC(=N)N)C(=O)N[C@@H](Cc1c[nH]cn1)C(=O)N[C@@H](Cc1ccc(O)cc1)C(=O)N[C@@H](Cc1ccc(O)cc1)C(=O)N[C@@H](CC(N)=O)C(=O)N[C@@H](Cc1c[nH]c2ccccc12)C(=O)N[C@@H](CC(C)C)C(=O)N[C@H](C(=O)N[C@@H](CCCNC(=N)N)C(=O)N[C@@H](CCC(N)=O)C(=O)N[C@@H](CCCNC(=N)N)C(=O)N[C@@H](Cc1ccc(O)cc1)C(N)=O)[C@@H](C)O)C(C)C

Ki: 0.66 nM
B4: Compound 166 (peptide)
peptide: Isovaleryl-APEK([AEEA-AEEA-γGlu-C18 diacid])PPADASPEELQRYYVELRHYYNWLTRQRY-NH2
SMILES: CC(C)CC(=O)N[C@@H](C)C(=O)N1CCC[C@H]1C(=O)N[C@@H](CCC(=O)O)C(=O)N[C@@H](CCCCNC(=O)COCCOCCNC(=O)COCCOCCNC(=O)CC[C@H](NC(=O)CCCCCCCCCCCCCCCCC(=O)O)C(=O)O)C(=O)N1CCC[C@H]1C(=O)N1CCC[C@H]1C(=O)N[C@@H](C)C(=O)N[C@@H](CC(=O)O)C(=O)N[C@@H](C)C(=O)N[C@@H](CO)C(=O)N1CCC[C@H]1C(=O)N[C@@H](CCC(=O)O)C(=O)N[C@@H](CCC(=O)O)C(=O)N[C@@H](CC(C)C)C(=O)N[C@@H](CCC(N)=O)C(=O)N[C@@H](CCCNC(=N)N)C(=O)N[C@@H](Cc1ccc(O)cc1)C(=O)N[C@@H](Cc1ccc(O)cc1)C(=O)N[C@H](C(=O)N[C@@H](CCC(=O)O)C(=O)N[C@@H](CC(C)C)C(=O)N[C@@H](CCCNC(=N)N)C(=O)N[C@@H](Cc1c[nH]cn1)C(=O)N[C@@H](Cc1ccc(O)cc1)C(=O)N[C@@H](Cc1ccc(O)cc1)C(=O)N[C@@H](CC(N)=O)C(=O)N[C@@H](Cc1c[nH]c2ccccc12)C(=O)N[C@@H](CC(C)C)C(=O)N[C@H](C(=O)N[C@@H](CCCNC(=N)N)C(=O)N[C@@H](CCC(N)=O)C(=O)N[C@@H](CCCNC(=N)N)C(=O)N[C@@H](Cc1ccc(O)cc1)C(N)=O)[C@@H](C)O)C(C)C

Ki: 0.96 nM
B5: Compound 163 (peptide)
peptide: Isovaleryl-APEK([AEEA-AEEA-γGlu-C18 diacid])PEEAASPEELQRYYVALRHYYNWLTRQRY-NH2
SMILES: CC(C)CC(=O)N[C@@H](C)C(=O)N1CCC[C@H]1C(=O)N[C@@H](CCC(=O)O)C(=O)N[C@@H](CCCCNC(=O)COCCOCCNC(=O)COCCOCCNC(=O)CC[C@H](NC(=O)CCCCCCCCCCCCCCCCC(=O)O)C(=O)O)C(=O)N1CCC[C@H]1C(=O)N[C@@H](CCC(=O)O)C(=O)N[C@@H](CCC(=O)O)C(=O)N[C@@H](C)C(=O)N[C@@H](C)C(=O)N[C@@H](CO)C(=O)N1CCC[C@H]1C(=O)N[C@@H](CCC(=O)O)C(=O)N[C@@H](CCC(=O)O)C(=O)N[C@@H](CC(C)C)C(=O)N[C@@H](CCC(N)=O)C(=O)N[C@@H](CCCNC(=N)N)C(=O)N[C@@H](Cc1ccc(O)cc1)C(=O)N[C@@H](Cc1ccc(O)cc1)C(=O)N[C@H](C(=O)N[C@@H](C)C(=O)N[C@@H](CC(C)C)C(=O)N[C@@H](CCCNC(=N)N)C(=O)N[C@@H](Cc1c[nH]cn1)C(=O)N[C@@H](Cc1ccc(O)cc1)C(=O)N[C@@H](Cc1ccc(O)cc1)C(=O)N[C@@H](CC(N)=O)C(=O)N[C@@H](Cc1c[nH]c2ccccc12)C(=O)N[C@@H](CC(C)C)C(=O)N[C@H](C(=O)N[C@@H](CCCNC(=N)N)C(=O)N[C@@H](CCC(N)=O)C(=O)N[C@@H](CCCNC(=N)N)C(=O)N[C@@H](Cc1ccc(O)cc1)C(N)=O)[C@@H](C)O)C(C)C

Ki: 2.49 nM
B6: Compound 165 (peptide)
peptide: Isovaleryl-APEK([AEEA-AEEA-γGlu-C18 diacid])PEEDASPEELQRYQVSLRHYYNWLTRQRY-NH2
SMILES: CC(C)CC(=O)N[C@@H](C)C(=O)N1CCC[C@H]1C(=O)N[C@@H](CCC(=O)O)C(=O)N[C@@H](CCCCNC(=O)COCCOCCNC(=O)COCCOCCNC(=O)CC[C@H](NC(=O)CCCCCCCCCCCCCCCCC(=O)O)C(=O)O)C(=O)N1CCC[C@H]1C(=O)N[C@@H](CCC(=O)O)C(=O)N[C@@H](CCC(=O)O)C(=O)N[C@@H](CC(=O)O)C(=O)N[C@@H](C)C(=O)N[C@@H](CO)C(=O)N1CCC[C@H]1C(=O)N[C@@H](CCC(=O)O)C(=O)N[C@@H](CCC(=O)O)C(=O)N[C@@H](CC(C)C)C(=O)N[C@@H](CCC(N)=O)C(=O)N[C@@H](CCCNC(=N)N)C(=O)N[C@@H](Cc1ccc(O)cc1)C(=O)N[C@@H](CCC(N)=O)C(=O)N[C@H](C(=O)N[C@@H](CO)C(=O)N[C@@H](CC(C)C)C(=O)N[C@@H](CCCNC(=N)N)C(=O)N[C@@H](Cc1c[nH]cn1)C(=O)N[C@@H](Cc1ccc(O)cc1)C(=O)N[C@@H](Cc1ccc(O)cc1)C(=O)N[C@@H](CC(N)=O)C(=O)N[C@@H](Cc1c[nH]c2ccccc12)C(=O)N[C@@H](CC(C)C)C(=O)N[C@H](C(=O)N[C@@H](CCCNC(=N)N)C(=O)N[C@@H](CCC(N)=O)C(=O)N[C@@H](CCCNC(=N)N)C(=O)N[C@@H](Cc1ccc(O)cc1)C(N)=O)[C@@H](C)O)C(C)C
